For orientation: IC50 means the concentration that gives 50% inhibition. High values mean weaker potency, low ones greater potency. In general, Kd refers to the free concentration of one partner at which half of the binding sites on the other are occupied at equilibrium, for simple one-to-one binding.

Non-standard residues stand in square brackets, D forms with d.

For two molecules, IC50 and Kd results are on record in PMC9719539 (Nature Communications, 2022).

Assay [1] deals with T1, integrin α5β1 ectodomain (soluble) (human, UniProt P08648;P05556).
T1 construct: human integrin α5 ectodomain; N-terminal secretion peptide and HRV3C digestion site in the construct; human integrin β1 ectodomain; source: Expi293F, transiently transfected, purified from culture supernatant (Ni-NTA, size-exclusion chromatography)
The assay is described as follows: fluorescence polarisation; competition with 10 nM FITC-cyclic-… binding to soluble integrin ectodomains in solution (50 nM α5β1, 200 nM αVβ1, 20 nM αVβ3, 20 nM αVβ5); global three-parameter dose-response fit. Particulars: both partners purified. (In fluorescence polarisation assays a small probe gives low polarisation when free and higher when bound to something large.)

In assay [2] the target is T2, integrin αVβ3 ectodomain (soluble) (human, UniProt P06756;P05106).
T2 construct: human integrin αV ectodomain; N-terminal secretion peptide and HRV3C digestion site in the construct; human integrin β3 ectodomain; source: Expi293F, transiently transfected, purified from culture supernatant (Ni-NTA, size-exclusion chromatography)
Described as above. Particulars: both partners purified.

Assay [3] has as its target T3, integrin αVβ1, intact, on K562 αVβ1 stable transfectants (human, UniProt P06756;P05556).
T3 construct: integrin αV subunit; integrin β1 subunit; the cells also express native α5β1, whose share the legend calls negligible
The assay can be described thus: flow cytometry on cells; intact integrins on K562 cells in L15 medium with 1% BSA, without Mn2+, no washing; titrator's binding read as enhancement of binding of fluorescent 9EG7 Fab (10 nM); EC50 of a three-parameter dose-response fit taken as Kd. The note with it: one partner purified. (A flow cytometer gives signals particle by particle.)

Assay [4] deals with T4, integrin α5β1, intact, on wild type K562 cells (human (endogenous in K562), UniProt P08648;P05556).
T4 construct: integrin α5 subunit, natively expressed on K562 cells; integrin β1 subunit, natively expressed on K562 cells; also called K562 WT (α5β1); K562 WT; source: endogenous, on wild type K562 cells
The description is as above. The note with it: one partner purified.

The target of assay [5] is T3, integrin αVβ1, intact, on K562 αVβ1 …. The assay can be described thus: flow cytometry on cells; intact integrins on K562 cells in L15 medium with 1% BSA and 1 mM Mn2+, no washing; titrator's binding read as enhancement of binding of AF647-9EG7 Fab (10 nM); EC50 of a three-parameter dose-response fit taken as Kd. Particulars: one partner purified.
In assay [6] the target is T4, integrin α5β1, intact, on wild type …. The assay is described as above. Particulars: one partner purified.
Assay [7] deals with T5, integrin α5β1, intact, on wild type K562 cells (human (endogenous in K562), UniProt P08648 42-1049; P05556 21-798).
T5 construct: integrin α5 subunit, natively expressed on K562 cells; integrin β1 subunit, natively expressed on K562 cells; also called K562 WT (α5β1); K562 WT; source: endogenous, on wild type K562 cells
Described as above. Particulars: one partner purified.

The target in assay [8] is T6, integrin α5β1 ectodomain (soluble) (human, UniProt P08648 42-995; P05556 21-728).
T6 construct: human integrin α5 ectodomain; N-terminal secretion peptide and HRV3C digestion site in the construct; human integrin β1 ectodomain; source: Expi293F, transiently transfected, purified from culture supernatant (Ni-NTA, size-exclusion chromatography)
The assay is described as follows: fluorescence polarisation; competition with 10 nM FITC-cyclic-… binding to soluble integrin ectodomains in solution (50 nM α5β1, 200 nM αVβ1, 20 nM αVβ3, 20 nM αVβ5); global three-parameter dose-response fit. Particulars: both partners purified.

In assay [9] the target is T5, integrin α5β1, intact, on wild type …. The assay can be described thus: flow cytometry on cells; intact integrins on K562 cells in L15 medium with 1% BSA, without Mn2+, no washing; titrator's binding read as enhancement of binding of fluorescent 9EG7 Fab (10 nM); EC50 of a three-parameter dose-response fit taken as Kd. Particulars: one partner purified.

T3 sequence (P06756 31-1048, chain 1 of 2): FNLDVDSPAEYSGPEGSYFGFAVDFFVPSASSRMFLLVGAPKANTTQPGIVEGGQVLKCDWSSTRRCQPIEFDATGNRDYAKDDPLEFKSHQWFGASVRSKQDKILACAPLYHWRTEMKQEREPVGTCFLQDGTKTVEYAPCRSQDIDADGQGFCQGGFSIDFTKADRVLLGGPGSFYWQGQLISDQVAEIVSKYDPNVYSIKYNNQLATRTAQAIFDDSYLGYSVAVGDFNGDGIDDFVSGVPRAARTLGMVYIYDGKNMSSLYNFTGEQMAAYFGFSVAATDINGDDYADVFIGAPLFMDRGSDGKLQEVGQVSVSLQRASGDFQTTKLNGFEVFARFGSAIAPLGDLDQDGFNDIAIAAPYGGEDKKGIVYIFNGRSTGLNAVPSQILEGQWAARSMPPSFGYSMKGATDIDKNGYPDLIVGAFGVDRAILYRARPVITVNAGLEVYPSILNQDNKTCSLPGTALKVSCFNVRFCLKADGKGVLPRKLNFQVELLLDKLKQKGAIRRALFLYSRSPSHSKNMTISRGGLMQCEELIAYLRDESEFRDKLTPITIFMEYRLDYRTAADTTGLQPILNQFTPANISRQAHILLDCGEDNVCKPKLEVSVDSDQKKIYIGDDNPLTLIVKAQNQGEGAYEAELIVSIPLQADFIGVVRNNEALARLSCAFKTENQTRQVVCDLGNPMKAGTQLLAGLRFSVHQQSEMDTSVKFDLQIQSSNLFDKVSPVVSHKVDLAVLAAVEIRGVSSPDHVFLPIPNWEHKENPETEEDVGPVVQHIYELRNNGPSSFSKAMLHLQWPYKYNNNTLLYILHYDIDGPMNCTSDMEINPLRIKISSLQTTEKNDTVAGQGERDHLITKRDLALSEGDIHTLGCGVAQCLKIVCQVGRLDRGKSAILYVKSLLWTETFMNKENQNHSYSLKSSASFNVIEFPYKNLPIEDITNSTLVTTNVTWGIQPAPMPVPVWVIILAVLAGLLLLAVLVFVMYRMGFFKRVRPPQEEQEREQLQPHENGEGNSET
T3 sequence (P05556 21-798, chain 2 of 2): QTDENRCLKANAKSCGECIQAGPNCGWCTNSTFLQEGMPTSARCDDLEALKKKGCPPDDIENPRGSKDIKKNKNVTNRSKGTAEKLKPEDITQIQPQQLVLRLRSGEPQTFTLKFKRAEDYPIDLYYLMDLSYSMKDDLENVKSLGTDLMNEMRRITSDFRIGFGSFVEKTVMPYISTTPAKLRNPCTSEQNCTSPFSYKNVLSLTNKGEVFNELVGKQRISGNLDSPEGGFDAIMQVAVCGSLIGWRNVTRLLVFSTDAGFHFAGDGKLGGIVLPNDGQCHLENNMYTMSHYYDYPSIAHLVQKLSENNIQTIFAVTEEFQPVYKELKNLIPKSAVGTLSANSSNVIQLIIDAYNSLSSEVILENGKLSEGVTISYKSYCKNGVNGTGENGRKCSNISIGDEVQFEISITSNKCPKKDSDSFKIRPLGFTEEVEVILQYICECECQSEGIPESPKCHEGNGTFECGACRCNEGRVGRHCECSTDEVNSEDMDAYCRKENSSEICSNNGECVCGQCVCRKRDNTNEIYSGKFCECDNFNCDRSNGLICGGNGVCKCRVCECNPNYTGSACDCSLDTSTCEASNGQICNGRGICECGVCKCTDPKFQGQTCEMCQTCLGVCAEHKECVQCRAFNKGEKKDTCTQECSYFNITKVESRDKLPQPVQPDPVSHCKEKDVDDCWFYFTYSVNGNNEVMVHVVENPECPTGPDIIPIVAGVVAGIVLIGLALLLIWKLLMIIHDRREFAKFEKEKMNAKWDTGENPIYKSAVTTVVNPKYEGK
T4 sequence (P08648 42-1049, chain 1 of 2): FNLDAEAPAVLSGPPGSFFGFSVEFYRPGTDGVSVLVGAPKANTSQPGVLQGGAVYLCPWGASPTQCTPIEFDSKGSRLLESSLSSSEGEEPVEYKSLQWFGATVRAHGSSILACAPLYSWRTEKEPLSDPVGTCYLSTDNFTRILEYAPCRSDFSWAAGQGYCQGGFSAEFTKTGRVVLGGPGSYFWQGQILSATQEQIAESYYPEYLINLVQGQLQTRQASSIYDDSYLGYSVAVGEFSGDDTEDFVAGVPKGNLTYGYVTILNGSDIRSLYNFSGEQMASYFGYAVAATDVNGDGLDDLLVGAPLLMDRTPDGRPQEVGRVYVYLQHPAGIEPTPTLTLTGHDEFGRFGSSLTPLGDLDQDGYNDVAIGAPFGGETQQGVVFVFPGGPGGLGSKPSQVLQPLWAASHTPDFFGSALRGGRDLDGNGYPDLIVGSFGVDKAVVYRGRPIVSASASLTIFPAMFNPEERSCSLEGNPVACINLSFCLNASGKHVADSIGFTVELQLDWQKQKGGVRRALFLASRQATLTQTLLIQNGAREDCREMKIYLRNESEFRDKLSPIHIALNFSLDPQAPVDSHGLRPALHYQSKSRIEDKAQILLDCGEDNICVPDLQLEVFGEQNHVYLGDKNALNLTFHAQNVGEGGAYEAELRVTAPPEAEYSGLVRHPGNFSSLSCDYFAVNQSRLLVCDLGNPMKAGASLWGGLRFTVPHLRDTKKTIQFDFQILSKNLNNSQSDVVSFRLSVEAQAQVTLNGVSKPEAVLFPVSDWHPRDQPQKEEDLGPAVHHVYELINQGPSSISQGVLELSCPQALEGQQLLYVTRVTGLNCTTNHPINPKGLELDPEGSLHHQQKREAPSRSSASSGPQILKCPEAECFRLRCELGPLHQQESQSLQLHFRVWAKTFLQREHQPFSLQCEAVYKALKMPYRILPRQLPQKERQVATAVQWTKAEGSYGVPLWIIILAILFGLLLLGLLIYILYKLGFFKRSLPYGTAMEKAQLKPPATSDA
T4 sequence (P05556 21-798, chain 2 of 2): as the sequence (P05556 21-798, chain 2 of 2) above
T5 sequence (P08648 42-1049, chain 1 of 2): as the sequence (P08648 42-1049, chain 1 of 2) above
T5 sequence (P05556 21-798, chain 2 of 2): as the sequence (P05556 21-798, chain 2 of 2) above
T1 sequence (P08648 42-995, chain 1 of 2): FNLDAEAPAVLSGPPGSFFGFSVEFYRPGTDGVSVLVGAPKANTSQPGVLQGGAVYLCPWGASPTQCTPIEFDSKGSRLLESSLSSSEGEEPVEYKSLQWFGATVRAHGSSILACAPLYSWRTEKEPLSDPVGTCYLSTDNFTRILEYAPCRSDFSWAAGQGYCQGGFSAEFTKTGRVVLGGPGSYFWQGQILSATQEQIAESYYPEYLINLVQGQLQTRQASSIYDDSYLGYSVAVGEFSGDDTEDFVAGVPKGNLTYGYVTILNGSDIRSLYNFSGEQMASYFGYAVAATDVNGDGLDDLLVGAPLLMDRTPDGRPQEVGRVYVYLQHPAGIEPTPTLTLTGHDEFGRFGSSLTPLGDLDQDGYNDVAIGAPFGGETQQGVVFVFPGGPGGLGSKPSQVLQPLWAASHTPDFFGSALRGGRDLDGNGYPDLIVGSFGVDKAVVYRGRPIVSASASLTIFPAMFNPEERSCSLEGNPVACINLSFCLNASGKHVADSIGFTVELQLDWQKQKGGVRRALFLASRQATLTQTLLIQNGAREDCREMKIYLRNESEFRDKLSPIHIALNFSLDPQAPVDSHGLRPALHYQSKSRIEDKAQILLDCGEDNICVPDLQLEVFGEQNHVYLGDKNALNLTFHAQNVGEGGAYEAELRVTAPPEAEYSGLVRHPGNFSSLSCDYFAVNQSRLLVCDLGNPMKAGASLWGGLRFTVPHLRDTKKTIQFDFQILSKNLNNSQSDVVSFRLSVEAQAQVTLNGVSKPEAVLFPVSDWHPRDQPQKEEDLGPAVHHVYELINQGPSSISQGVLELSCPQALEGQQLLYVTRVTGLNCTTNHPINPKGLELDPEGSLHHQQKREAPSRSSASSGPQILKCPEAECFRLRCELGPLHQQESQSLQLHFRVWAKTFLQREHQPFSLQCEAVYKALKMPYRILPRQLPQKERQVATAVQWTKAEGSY
T1 sequence (P05556 21-728, chain 2 of 2): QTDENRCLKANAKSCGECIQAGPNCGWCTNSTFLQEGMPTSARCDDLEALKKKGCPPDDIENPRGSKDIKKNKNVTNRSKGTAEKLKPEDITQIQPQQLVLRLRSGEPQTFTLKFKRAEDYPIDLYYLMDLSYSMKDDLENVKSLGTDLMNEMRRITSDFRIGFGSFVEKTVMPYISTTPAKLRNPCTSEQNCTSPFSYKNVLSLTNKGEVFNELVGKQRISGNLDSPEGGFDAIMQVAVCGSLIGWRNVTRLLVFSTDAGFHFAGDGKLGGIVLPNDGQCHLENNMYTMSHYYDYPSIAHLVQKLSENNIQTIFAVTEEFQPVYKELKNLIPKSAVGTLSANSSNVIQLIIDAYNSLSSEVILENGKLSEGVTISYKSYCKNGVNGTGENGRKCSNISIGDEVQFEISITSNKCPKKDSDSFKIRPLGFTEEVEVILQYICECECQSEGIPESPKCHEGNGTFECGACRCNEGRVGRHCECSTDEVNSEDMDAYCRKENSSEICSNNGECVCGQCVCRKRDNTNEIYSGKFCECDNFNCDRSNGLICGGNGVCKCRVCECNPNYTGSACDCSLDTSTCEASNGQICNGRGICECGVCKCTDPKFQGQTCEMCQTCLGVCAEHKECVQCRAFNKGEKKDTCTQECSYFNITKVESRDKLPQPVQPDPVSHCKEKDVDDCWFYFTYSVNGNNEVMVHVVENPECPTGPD
T6 sequence (P08648 42-995, chain 1 of 2): as the sequence (P08648 42-995, chain 1 of 2) above
T6 sequence (P05556 21-728, chain 2 of 2): as the sequence (P05556 21-728, chain 2 of 2) above

B1: Biogen-αVβ1.5 Fab (Fab, V domains shown)
VH: EVQLVESGGGVVQPGRSLRLSCAASGFTFKYYGMHWVRQAPGKGLEWVASIWYDGSNKKYADSVKGRFTISRDNSKNTLYLQMNSLRAEDTAVYYCARGGPTRGDGTRVYYYGMDVWGQGTTVTVSS
VL: EIVMTQSPATLSVSPGERATLSCRASQSVSSNLAWYQQKPGQAPRLLIYSASTRATGIPARFSGSGSGTEFTLTISSLQSEDFAVYYCQQYYHHPFTFGGGTKVEIK
notes: heavy chain before CDR3; heavy-chain CDR3 (RGD motif highlighted); heavy chain after CDR3 up to the papain cut (IgG1); light chain; Expressed as IgG1 and cut to Fab with papain; also called Exemplary Antibody 5; anti-αVβ1; source: Expi293F, recombinantly expressed as IgG1; Fab generated with papain, purified (Hi-Trap Q)
In the case of B1, the IC50 in [1] came to 0.2 ± 0.1 µM; in [2] it was 21 ± 3 µM. Moreover, the Kd in assay [3] is 0.117 µM; in [4], 19 µM; in [5], 0.0236 µM; in assay [6], 4.3 µM.

B2: cRGDfK peptide, cyclo[Arg-Gly-Asp-D-Phe-Lys] (peptide)
peptide: cyclo(RGD[dF]K)
notes: cyclic pentapeptide, a cilengitide analog; f = D-Phe; Unlabelled soluble peptide used as titrator
As to B2, the dissociation constant Kd in assay [7] was 11 µM; in [9], 610 µM. In assay [8], this molecule came in with an IC50 of 1.2 ± 0.5 µM.
